Experiments:
[1] = target: N67A mutant ZIKV capsid (C) protein as N-terminal MBP fusion (MBP-C_(N67A)) (Zika virus MR766); experiment: cross-linking; glutaraldehyde 0, 0.25, 0.5 and 1.0 mM; MBP-C protein 0.16 mg/ml in PBS, 50 uL, room temperature, 20 min, stopped with 50 mM Tris pH 8; SDS-PAGE, Coomassie blue
[2] = target: Wild-type ZIKV capsid (C) protein as N-terminal MBP fusion (MBP-CWT) (Zika virus MR766); experiment: as above

Substance | stoichiometry N [1] | stoichiometry N [2]
N67A mutant ZIKV capsid (C) protein as N-terminal MBP fusion (MBP-C_(N67A)) (natural protein) | 2 | –
Wild-type ZIKV capsid (C) protein as N-terminal MBP fusion (MBP-CWT) (natural protein) | – | 2

Source: PMC10786401
